Source: US20260265394A1 (CARTESIAN THERAPEUTICS, published 2026)

Columns and labels:
[1] = target: T1, soluble BCMA (UniProt Q02223 1-54, limits assumed); assay: apparent affinity of anti-BCMA CAR to soluble BCMA (FIG. 10A); method not described
T1 sequence (looked up): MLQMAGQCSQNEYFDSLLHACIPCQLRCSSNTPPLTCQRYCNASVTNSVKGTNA

[2] = target: T1, soluble BCMA; assay: titration, '% of Max Binding' against 'Log Conc (nM)'; apparent affinity of anti-BCMA CAR to soluble BCMA; the text does not describe the assay

B1: anti-BCMA scFv1 (as CAR), Example 16 (scFv)
scFv: DIVLTQSPPSLAMSLGKRATISCRASESVTILGSHLIHWYQQKPGQPPTLLIQLASNVQTGVPARFSGSGSRTDFTLTIDPVEEDDVAVYYCLQSRTIPRTFGGGTKLEIKGSTSGSGKPGSGEGSTKGQIQLVQSGPELKKPGETVKISCKASGYTFTDYSINWVKRAPGKGLKWMGWINTETREPAYAYDFRGRFAFSLETSASTAYLQINNLKYEDTATYFCALDYSYAMDYWGQGTSVTVSS
Kd [1]: 3.2 nM | EC50 (read off the curve) [2]: ~10 nM
